The target of the assay is Malayan pangolin ACE2 extracellular domain (residues 1-740) fused with the Fc domain of mouse IgG (Malayan pangolin). In words: SPR.

Usually Kd stands for a measure of binding affinity in units of concentration.

For “SARS-CoV-2 Delta RBD (residues 319-541) (from UniProt P0DTC2 319-541) (domain or fragment)”, the equilibrium dissociation constant (Kd) came to 58.2 nM.
